For the experiment, the target named is PD-L1 on FEMX melanoma cells (UniProt Q9NZQ7). As to the kind of experiment: cell-based or functional assay.
UniProt Q9NZQ7, sequence (Q9NZQ7 19-290 limits assumed): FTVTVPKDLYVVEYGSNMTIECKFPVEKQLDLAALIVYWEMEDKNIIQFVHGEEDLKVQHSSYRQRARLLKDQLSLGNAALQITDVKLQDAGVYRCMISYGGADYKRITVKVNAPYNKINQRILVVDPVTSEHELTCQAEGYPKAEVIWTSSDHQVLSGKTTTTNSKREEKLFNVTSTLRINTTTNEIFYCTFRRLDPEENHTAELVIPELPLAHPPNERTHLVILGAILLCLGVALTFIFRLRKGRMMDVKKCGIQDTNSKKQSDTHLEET

B1: blocking anti-PD-L1 antibody (Biolegend clone 29E.2A3) (antibody, from another filing, V domains shown)
VH: EVQLQQSGPELVKPGASVKMSCKASGYTFTSYVMHWVKQKPGQGLEWIGYVNPFNDGTKYNEMFKGKATLTSDKSSSTAYMELSSLTSEDSAVYYCARQAWGYPWGQGTLVTVSA
VL: DIVLTQSPASLAVSLGQRATISCRATESVEYYGTSLVQWYQQKPGQPPKLLIYAASSVDSGVPARFSGSGSGTDFSLTIHPVEEDDIAMYFCQQSRRVPYTFGGGTKLEIK
For B1, the fraction of CD3+CD8+ TIL making IFN-gamma in a 12-hour intracellular cytokine release (ICS) assay, 1520 TIL co-cultured with FEMX tumor cells, antibody at 10 µg/mL came to 37.3%.

Source of the values: patent publication US20170175137A1.
